Broadly, the IC50 is the concentration needed to halve the response being measured.

Here are results for 1 molecule from article PMC3319870 (New Biotechnology, 2011).

The test deals with Fyn SH3 domain, His6-tagged SUMO fusion (human, UniProt P06241 82-143). The test can be described thus: ELISA. Background: ELISA stands for enzyme-linked immunosorbent assay.
Sequence of Fyn SH3 domain, His6-tagged SUMO fusion (P06241 82-143): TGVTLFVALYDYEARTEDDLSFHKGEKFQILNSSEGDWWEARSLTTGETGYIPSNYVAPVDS

Molecule VSLARRPLPPLPGGK [proline-rich peptide VSLARRPLPPLPGGK] yielded an IC50 of about 440 nM.
